Assay results as given in the DeepSol protein solubility set.

Experiment: soluble on expression in E. coli; label from the status in PepcDB or PDB records
In the case of “MDNVDFSKDIRDYSGLELAFLGDAIWELEIRKYYLQFGYNIPTLNKYVKAKVNAKYQSLIYKKIINDLDEEFKVIGKRAKNSNIKTFPRSCTVMEYKEATALEAIIGAMYLLKKEEEIKKIINIVIKGELEHHHHHH”, the “soluble on expression in E. coli” value is reported as “soluble”.
With “MSGATPVFTEINQIQGTGDKSPLISSGFISDDEYFVQGVVTARGESLLKGFYLQGLNDDFDPNSSEGIFVSTGSAPSLEIQPGALVCVKAKVQEYYGQTQLKPDTNNFLVQGHQAPVSVTELTINENETLAQALERHEGMQVKLTSHSDLRITRNFSFDYASKRNNMVLSHGEPLFKPTQLFAAESPEAIQLAEENAKRQITIESDNKAPNGEVPYFPDFATDSNQDGSADSYLRLGARIEGLEGVIAYSYGQYRLVTTNTISQENIITQAFDEDGDTLFNVERTDEPSIDDADLTITSFNVLNYFTSVAAGGLEHHHHHH” the “soluble on expression in E. coli” value was “not soluble”.
In the case of “SNAKVTVGKSAPYFSLPNEKGEKLSRSAERFRNRYLLLNFWASWCDPQPEANAELKRLNKEYKKNKNFAMLGISLDIDREAWETAIKKDTLSWDQVCDFTGLSSETAKQYAILTLPTNILLSPTGKILARDIQGEALTGKLKELLKTE”, the “soluble on expression in E. coli” value is reported as “soluble”.
In the case of “MYDSAPSDPVPFARLRFRDLQLLREIAAARSLTAVAERRGLTQPALSRTLRDIEAELGAQVFSRERGARLAPTAVGRHILARVDLLMADAGALHSELRAFEEGRGAHLRLGVIPFVSNALMQEVLKTLTGEPLRMSVSTFEGATDQLVLALRRQELDIVIGRLSADAGADTLAQEGLFSQTASIVMSEALYERRASLTLASLHGHPWVLPPASSPTRMAFVEAFVSRNAVAPVARIETTSARLVHSAISSNMASLGLLPLDIGQELERWGGVRCKAFPVPFRMPTVGLIVLAERRARAMNRVVRDVLHRCIARVAAYA”, the “soluble on expression in E. coli” value is reported as “not soluble”.
For “MEVVRIPEFKEKTAPGAYYQQPAIDGSRPGRFYANLFDIKATPKYGMRTLAYHEGIPGHHFQVAVAMELEGQPLIRKMAPFTAYIEGWALYSERVAWELGFQQDPFDNIGRLQAELFRAVRLVVDTGIHHSRWTREQAIDYMKKNTGMSDRDVTAEIERYIVMPGQATAYKVGMMKILELREKAKQALGDKFDLRDFHDVVLKNGAVPLDILEKLVDRYIADKRSQA”, the “soluble on expression in E. coli” value was “not soluble”.
With “MALNTNQLFAYLNRGDIAEFKFSPLFTTLFFPNVATFSTQNIMLDTLDIEEVTMSAFCSPMVGSQVQRDKGYETSTIKPGYMKPKHEIDPTKTIMRMAGEDPAQLNDPTYRRMRLITGNMRRQINAIKARVEWLAVNAVTTGKNIIEGEGIERYEIDWKIPEKNIIEQADGKKWSEQDKETHYPIYDIELYADQAGCPANVMIMGAEVWRTLRSFKKFRELYDLSRGSESAAELACKNLGEVVSFKGYLGDLALIVYSGKYTDSDGTEKYFLEPDLLVLGNTNNKGLVAYGAIMDQEAVRTGATQNMFYPKNWIEDGDPAIEYVQTHSAPQPVPADIRKFVTVKIA” the “soluble on expression in E. coli” value was “not soluble”.
In the case of “MIPEQRREQILRQLRKHQVLSVHQLMEMFDCSHMTVRRDIALLEQEGRAHSVTGGVRIASQLHSEPSHQSKAVVELPQKQAMAKLAASLLHADMTVYLDAGTSTLEIVHYIKALSGMTVVTNDFGVAQALMDAPQVTVIHTGGQLDHSNHSCVGGLAVATLRQVVTDVAFISTSSWDLRRGITTPSALKVEVKQVAMQSATQVVLVASSSKYGTFSMYKIAGLEQFDIIISDAALAPAAADGIRKHGVELLLPAQSLEHHHHHH”, the “soluble on expression in E. coli” value is reported as “not soluble”.
With “MRFLHTADWQLGMTRHFLNGEAQPRYSASRREAVASLGEIAKRTGAEFVVVSGDVFEHNQLAPRDVSQSLEAMRAIGVPVYLLPGNHDPLDASSVYTSALFVAERPDNVVVLDRAGVHEVRPGVQIVAAPWRSKAPTSDLIGDVLADLPADGVTRVLVGHGGVDILDPDKNKPSLIRMAAVEDALARGAVHYVALGDKHSRTEVGGSGRVWYSGSPEVTNYDDIESDPGHVLVVDIDENDARRAVRVESEKVGRWRFVTLRRSVDTDRDIADLDLNLDLLDDKERTVVRLALTGSLTVTDKAKLDECLDRYARLFAALTTWERHTDIAVIPADGEFDDLGIGGFAAAAVDELVATARSEAAEAEDARAALGLLLRLVDRDKGAALEHHHHHH” the “soluble on expression in E. coli” value was “soluble”.
With “MSTEKEKMIAGELYRSADETLSRDRLRARQLIHRYNHSLAEEHTLRQQILADLFGQVTEAYIEPTFRCDYGYNIFLGNNFFANFDCVMLDVCPIRIGDNCMLAPGVHIYTATHPIDPVARNSGAELGKPVTIGNNVWIGGRAVINPGVTIGDNVVVASGAVVTKDVPDNVVVGGNPARIIKKL” the “soluble on expression in E. coli” value was “not soluble”.
For “MKTIHVSVVTPDGPVYEDDVEMVSVKAKSGELGILPGHIPLVAPLEISAARLKKGGKTQYIAVSGGFLEVRPDKVTILAQAAERAEDIDVLRAKAAKERAERRLQSQQDDIDFKRAELALKRAMNRLSVAEMK”, the “soluble on expression in E. coli” value was “soluble”.
For “MSLSKSMARARNRCLPMNFRAEDLASGILRERVKVGASLADVDPMNIDKSVRFDSIGGLSHHIHALKEMVVFPLLYPEIFEKFKIQPPRGCLFYGPPGTGKTLVARALANECSQGDKKVAFFMRKGADCLSKWVGESERQLRLLFDQAYLMRPSIIFFDEIDGLAPVRSSRQDQIHSSIVSTLLALMDGLDNRGEIVVIGATNRLDSIDPALRRPGRFDREFLFNLPDQKARKHILQIHTRDWNPKLSDAFLGELAEKCVGYCGADIKALCTEAALIALRRRYPQIYASSHKLQLDVSSIVLSAQDFYHAMQNIVPASQRAVMSSGHALSPIIRPLLERSFNNILAVLQKVFPHAEISQSDKKEDIETLILEDSEDENALSIFETNCHSGSPKKQSSSAAIHKPYLHFTMSPYHQPTSYRPRLLLSGERGSGQTSHLAPALLHTLERFSVHRLDLPALYSVSAKTPEESCAQIFREARRTVPSIVYMPHIGDWWEAVSETVRATFLTLLQDIPSFSPIFLLSTSETMYSELPEEVKCIFRIQYEEVLYIQRPIEEDRRKFFQELILNQASMAPPRRKHAALCAMEVLPLALPSPPREGHHHHHH”, the “soluble on expression in E. coli” value was “not soluble”.
For “MANKGIVPVKISLTEGDFYTLWAPQWREHGAEWQAFLGSGDDLYVFESPAAVLAYIESGARHDLSDHPKWGAFMAGADDRVVPTDRQEYDLIGVPALLAERPSHTNVSAVARCFAITRSLGDVTATIPVQSFFSSHSILMNTERGGNHFTGDSGLGEWTGIGRIVLTSWNNVIDALDSAITVHTDGNAEAISAAAARIDAATAEAEQRRIAEEKKKKADAEKVDPYDATPWAAAGIDPIKISIDGRTVYTLRTYIEAQPVFLGKYGEIFTFNSGKSLVRWLVEHDDHDLARVSTWEDLMVPVNAGELDITVHPDNVYSFNGLTRDINTSVEAVDTAQMARAYELLADAADWAADDSLNSYFLTNPRMQDYISYMIGSTRVSGYTPTPPFTEHSESWAEMEKMLTKRFSKF”, the “soluble on expression in E. coli” value was “not soluble”.
In the case of “MFILHRSMLPCGANQMDLIQENGQPRYGRFSQLPTAIGLDRYIYKSPYGKIEKGWRKKLKYKKFKFCSIQHQHYSIGLAIADIGWAGHGFFYVYDHAKHQVQEWNAIHAFARKTCVDEQPLFNQSYFYKSPFELDIQHANGVRYLRVTKYGEILLSARIFCAGTEPLSLCSPNGINGWTYTQKKTTLGVEGYFTTKQGEMIEFNETSLASLDDTCGFLRPETAWFWLSSSFWTDHGDRIGINLASGVNESFGNENCIWINGVLHSIADVLFERQDKNHWVIRSLDHKLELHVETGWRRYESINLRMVGSQFSQWQAKLTGKILLDENKTVVLNQEYALLEQHYAKW”, the “soluble on expression in E. coli” value is reported as “not soluble”.
For “MAREGCLALNVECRGRRVKFEARMETLPNGRQILVDRVVFPDSVAVLPLVEKDGEWHVVLVRQFRPSIGKWTLEAPAGTLKEGETPEAAAARELEEEAGLKAKALVRVGGGHVSPGYSTEYIHLFLAYSLEKGEMSPEEHEVIEGVVEMRLSEALESIESGVIEDLKTIALVMAAASRVHQLEAGGGV”, the “soluble on expression in E. coli” value was “soluble”.
For “MGKMRTPQEVPARLDALAEAARKLKFDVREPVDAGAGAIGAVHSLDYLRFLREAHARWKQLPDDWGDEVVSNVFVREPNALRGVLAQAARYLADGSCPVGPHTWQSAYWAAQCAISGAQTLLDGERHAYALCRPPGHHARRDAAGGFCYLNNAAIAAQMLTQRYKRVAILDTDMHHGQGIQEIFYERSDVLYVSIHGDPENFYPVVAGFENERGAGEGYGYNVNLPMPHGSPEPVFFDRLQQAQRAIELFQPDALVLSLGFDVFEKDPQAMVAVSANGFERLGQAIGAFKLPTLIVQEGGYYIEGLEDNAERFFAGLAKALEHHHHHH”, the “soluble on expression in E. coli” value was “not soluble”.
In the case of “MAHHHHHHMPAVKQHLTGKASAAMRPTPSDAGAVLEPLTVRPSRVTTTTDHLTTSSAISTISVDTIRECGSAEDAYEAGKELGGVGPVFTGVAVPAEHPVAAAMPADAAELRHEEELKVIMCRYRPQSTEN”, the “soluble on expression in E. coli” value is reported as “soluble”.
For “MQLDRVDRKILNELYNDSRLSMRELAKRVNLSAPSTSERVRKLESEGVIQKYTIDIDYKKAGLVLDCILEITLKNGDTTRMQQFIQSYPSASFCYRVTGSLCYIVKISVPSLVELEEFINDVSSYATTVSHIVLSEVSLTPDIEHIFPED”, the “soluble on expression in E. coli” value was “not soluble”.
For “MTVTDHILPTATNGRPPGLIIAAPSTNSGKTTVTLALHAALRRRSLTVQPYKCGPDYIDPAFHEIAAGRPCYNLDSWAFGQDRITYLLDAAAGADLCLAEGVMGLFDGGSARGAWGNGATADIAAFTGWPVVLVIDVAGQAQSAAALALGFARYRSDVRIAGVILNNVASARHEALVRDGFAAQDIPVLGGFERQRDLTLKNRHLGLVQARETARLDIRLQQLADSAVRGIDLDALIRAAQPARPIASTIRPLTPPGQRIALAHDDAFSFIYPHLTAGWRAAGAEIVPFSPLNDEGPDPSCDAAWLPGGYPELHAGRLAAATRFKAALGAFAETRAVHGECGGYMTLGAGLIDADGTRHAMAGLLGLETDFASRKLHLGYRLATLHADAAGKAAGSVLRGHEYHYARVVTVADEPLAEIRDPAGQLTDETGSRRGHVTGTFFHLIDVAEEAIALEHHHHHH”, the “soluble on expression in E. coli” value was “not soluble”.
For “MVLPALPAPPVCDSQNECVGWLGVAYSAVVDVIRAAAHEGVYIEPEARGRLDALREWIYYNYYTERAKRRDRRRRSVCHARTWFCFRKYDYVRRSIWHDTTTNTISVVSAHSVQ”, the “soluble on expression in E. coli” value was “soluble”.
With “MSAYPKSYNPFDDDGEDEGARPAPWRDARDLPDGPDAPADRQQYLRQEVLRRAEATAASTSRSLALMYESEKVGVASSEELARQRGVLERTEKMVDKMDQDLKISQKHINSIKSVFGGLVNYFKSKPVETPPEQNGTLTSQPNNRLKEAISTSKEQEAKYQASHPNLRKLDDTDPVPRGAGSAMSTDAYPKNPHLRAYHQKIDSNLDELSMGLGRLKDIALGMQTEIEEQDDILDRLTTKVDKLDVNIKSTERKVRQL” the “soluble on expression in E. coli” value was “soluble”.
For “MPITNERKETIRVAKKLNKFIALPSMLNWKVHESDVLRRGRVLCMIRSKNFFFPDDISSLKMRMATVTKHGYLVLYESVDEGLVIDLRSATHILTECDKYKSERIKYSRSHVKVRLPRGNVHMFLRDDDISKWTAALLEAHVSFRPTAAARVVAKPRQQPSKNVETMTAIEPVEVMDSPTSPVTSSNSGLITVLERGVSSEDTLIPSVRRGVIPVNTLRYQIEKHLEMCTPASEQLSKSSDPNISSMYVFHQGIQVKQEPIDDDQEEEQQVQKQLVFKIEGSEDEEAVKKEWWLRSLRC”, the “soluble on expression in E. coli” value was “not soluble”.
For “MRDIVFIERDPYAPIRHCYTVSKILYQGKSPYQEIQVIESPEFGRMLILDGVVQLDEKYEFLYHEYLAHVPLHAHPNPRNVLIIGGGDGGTLREVLKHDIVERAVLVDIDKEVIEVSKKYLPTLSVGFQDPRAIVVNEDGYKYVQDYENEFDVIIVDSTDPVGFAHVLTTEDFFRHVYKALKEDGIFVAQTESIHYHLEMVSNIQQRLKKVFPIVDLYTSVIPIYAGYWWTFSIASKKYPVRTPAREVKVQTKIYDADMHEYAFLPESFYNKIVNGEYKYLEHHHHHH”, the “soluble on expression in E. coli” value was “not soluble”.
